Non-standard residues stand in square brackets, D forms with d. No end group written: not given here.
target: A-beta peptide (1-42) (Homo sapiens, UniProt P05067); experiment: ThT seeding assay; assay type: biochemical; conditions: coaggregates formed with 20 μM inhibitor, 7 days at 37° C., 10 mM NaPi pH 7.4; mixed 20:80 with fresh Aβ 20 μM, 10 μM ThT, fluorescence over 20 h
Sequence (P05067 672-713): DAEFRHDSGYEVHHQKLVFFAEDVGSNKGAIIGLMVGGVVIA

**Q.** Which “seeding effect of preformed Abeta-inhibitor coaggregates (ability to increase the rate of the aggregation of fresh Abeta / shorten the lag phase)” value does the source give for “rprtrlrthqnr ([dR][dP][dR][dT][dR][dL][dR][dT][dH][dQ][dN][dR]) [DB4]” here?
**A.** Its value is “no seeding effect”.

**Q.** For “rpittlqthqnr ([dR][dP][dI][dT][dT][dL][dQ][dT][dH][dQ][dN][dR]) [DB2]”, which “seeding effect of preformed Abeta-inhibitor coaggregates (ability to increase the rate of the aggregation of fresh Abeta / shorten the lag phase)” value is on record?
**A.** The value was “no seeding effect”.

**Q.** With “rprtrlhthrnr ([dR][dP][dR][dT][dR][dL][dH][dT][dH][dR][dN][dR]) [D3]” as the substance, how does the “seeding effect of preformed Abeta-inhibitor coaggregates (ability to increase the rate of the aggregation of fresh Abeta / shorten the lag phase)” value read?
**A.** Its value is “no seeding effect”.

**Q.** For rpitrlhtnrnr [DB1], which “seeding effect of preformed Abeta-inhibitor coaggregates (ability to increase the rate of the aggregation of fresh Abeta / shorten the lag phase)” value is on record?
**A.** Its value is “no seeding effect”.

**Q.** Which “seeding effect of preformed Abeta-inhibitor coaggregates (ability to increase the rate of the aggregation of fresh Abeta / shorten the lag phase)” value does the source give for “rpitrlqtheqr ([dR][dP][dI][dT][dR][dL][dQ][dT][dH][dE][dQ][dR]) [DB5]” here?
**A.** Its value is “no seeding effect”.

**Q.** For “rpitrlrthqnr ([dR][dP][dI][dT][dR][dL][dR][dT][dH][dQ][dN][dR]) [DB3]”, which “seeding effect of preformed Abeta-inhibitor coaggregates (ability to increase the rate of the aggregation of fresh Abeta / shorten the lag phase)” value is on record?
**A.** The value was “no seeding effect”.

same assay, conditions: inhibitor-Abeta coaggregates added to fresh Aβ 20 μM, ThT fluorescence over 20 h

**Q.** “rprtrlrthqnr ([dR][dP][dR][dT][dR][dL][dR][dT][dH][dQ][dN][dR]) [DB4]” was tested. Which “formation of ThT-positive Abeta aggregates in the later phase” value did it give?
**A.** The value was “appear to reduce the formation of ThT-positive Abeta aggregates in the later phase”.

From patent US9591845B2, “Method for treating blood, blood products and organs” (FORSCHUNGSZENTRUM JUELICH GMBH, priority 2012, dated 2017)
